Results reported in US10370436B2, “Anti-pseudomonas Psl binding molecules and uses thereof” (priority 2011, dated 2019).

What was measured:
[1] = tested on: P. aeruginosa strains PAO1, 33356, 6294, 6077; experiment: P. aeruginosa acute pneumonia model, survival; format: in vivo, BALB/c mice; settings: strain 6077 (O11) 8×10^5 or 6×10^5 CFU; 5 and 1 mg/kg; FIGS. 6E, 6F
Method: FIG. 6 (A-G): Survival rates for animals treated with anti-Psl monoclonal antibodies Cam-003 or WapR-004 in a P. aeruginosa acute pneumonia model. (A-D) Animals were treated with Cam-003 at 45, 15, and 5 mg/kg and R347 at 45 mg/kg or PBS 24 hours prior to intranasal infection with (A) PAO1 (1.6×10^7 CFU), (B) 33356 (3×10^7 CFU), (C) 6294 (7×10^6 CFU), (D) 6077 (1×10^6 CFU). (E-F) Animals were treated with WapR-004 at 5 and 1 mg/kg as indicated followed by infection with 6077 at (E) (8×10^5 CFU), or (F) (6×10^5 CFU). Animals were carefully monitored for survival up to 72 hours (A-D) or for 120 hours (E-F). (G) Animals were treated with Cam-003 at 15 mg/kg or 5 mg/kg, or R347 at 15 mg/kg 24 hours prior to intranasal infection with PAO1 (4.4×10^7 CFU), and Cam-003 at 15 mg/kg 24 hours prior to intranasal infection with PAO1ΔpslA (3×10^7 CFU). In all experiments, PBS and R347 served as negative controls. Results are represented as Kaplan-Meier survival curves; differences in survival were calculated by the Log-rank test for Cam-003 vs. R347. (A) Cam-003 (45 mg/kg—P<0.0001; 15 mg/kg—P=0.0003; 5 mg/kg—P=0.0033). (B) Cam-003 (45 mg/kg—P=0.0012; 15 mg/kg—P=0.0012; 5 mg/kg—P=0.0373). (C) Cam-003 (45 mg/kg—P=0.0007; 15 mg/kg—P=0.0019; 5 mg/kg—P=0.0212). (D) Cam-003 (45 mg/kg—P<0.0001; 15 mg/kg—P<0.0001; 5 mg/kg—P=0.0001). Results are representative of at least two independent experiments. […]

[2] = tested on: P. aeruginosa 6077 (O11-cytotoxic); experiment: P. aeruginosa corneal infection (keratitis) model; format: in vivo, mice; settings: versus negative control-treated animals, 24 hours after infection
Method: FIG. 8 (A-G): Anti-Psl monoclonal antibodies Cam-003 and WapR-004 are active in a P. aeruginosa keratitis model and thermal injury model. Mice were treated with a control IgG1 antibody or Cam-003 at 45 mg/kg (A, B) or 15 mg/kg (C, D) or PBS or a control IgG1 antibody or Cam-003 at 45 mg/kg or WapR-004 at 45 mg/kg or 15 mg/kg or 5 mg/kg (F, G) 24 hours prior to infection with 6077 (O11-cytotoxic—2×10^6 CFU). Immediately before infection, three 1 mm scratches were made on the left cornea of each animal followed by topical application of P. aeruginosa in a 5 μl inoculum. 24 hours after infection, the corneal pathology scores were calculated followed by removal of the eye for determination of viable CFU. Differences in pathology scores and viable CFU were determined by the Mann-Whitney U-test. (A) P=0.0001, (B) P<0.0001, (C) P=0.0003, (D) P=0.0015. (F) and (G) Cam-003 (45 mg/kg) vs. WapR-004 (45 mg/kg): P=0.018; Cam-003 (45 mg/kg) vs. WapR-004 (15 mg/kg): P=0.0025; WapR-004 (45 mg/kg) vs. WapR-004 (15 mg/kg): P=0.1331; WapR-004 (5 mg/kg) vs. Ctrl: P<0.0001. Results are representative of five independent experiments. (E) Survival analysis from Cam-003 and R347 treated CF-1 mice in a P. aeruginosa thermal injury model after 6077 infection (2×10^5 CFU) (log-rank: R347 vs. Cam-003 15 mg/kg, P=0.0094; R347 vs. Cam-003 5 mg/kg, P=0.0017). […]

[3] = tested on: P. aeruginosa strains PAO1, 33356, 6294, 6077, 6206; experiment: Acute pneumonia model, organ burden; format: in vivo, BALB/c mice; settings: 6294 (O6) and 6206 (O11); FIGS. 7E, 7F
Method: Antibodies or PBS were administered 24 hours before infection in each model. P. aeruginosa acute pneumonia, keratitis, and thermal injury infection models were performed as described (DiGiandomenico, A., et al., Proc Natl Acad Sci USA 104, 4624-4629 (2007)), with modifications. In the acute pneumonia model, BALB/c mice (The Jackson Laboratory) were infected with P. aeruginosa strains suspended in a 0.05 ml inoculum. In the thermal injury model, CF-1 mice (Charles River) received a 10% total body surface area burn with a metal brand heated to 92° C. for 10 seconds. Animals were infected subcutaneously with P. aeruginosa strain 6077 at the indicated dose. For organ burden experiments, acute pneumonia was induced in mice followed by harvesting of lungs, spleens, and kidneys 24 hours post-infection for determination of CFU.

B1: WapR-004: anti-Psl antibody, VH SEQ ID NO: 11 and VL SEQ ID NO: 12 (antibody, V domains shown)
VH: EVQLLESGPGLVKPSETLSLTCNVAGGSISPYYWTWIRQPPGKGLELIGYIHSSGYTDYNPSLKSRVTISGDTSKKQFSLHVSSVTAADTAVYFCARGDWDLLHALDIWGQGTLVTVSS
VL: EIVLTQSPSSLSTSVGDRVTITCRASQSIRSHLNWYQQKPGKAPKLLIYGASNLQSGVPSRFSGSGSGTDFTLTISSLQPEDFATYYCQQSYSFPLTFGGGTKLEIK
modifications: WapR-004 VH; WapR-004 & WarR-004RAD VL
B1 was tested, and the survival [1] was “significant concentration-dependent survival”, the “bacterial counts in total eye homogenates” value [2] was “reduced bacterial counts” and the corneal pathology ([2]; FIGS. 8A-D, F-G) was “significantly less pathology”. For the same molecule, the “dissemination to the spleen and kidneys” value [3] was “effective at reducing P. aeruginosa dissemination to the spleen and kidneys” and the organ burden [3] was “reduced organ burden”.
